According to the supplement of paper PMC7125110:
± gives the standard error. Fewer inactive variants are shown than the library holds.

B1: glmS ribozyme (parent)
chain: AUAAAAGCGCCAGAACUACAGAAAUGUAGUUGACGAGGAGGAGGUUUAUCGAAUUUUCGGCGGAUGCCUCCAAA

Variants of: B1
Assay: self-cleavage kobs at 2500 uM GlcN6P; higher = faster cleavage; RNA array
Settings: with glucosamine-6-phosphate
Method in brief: (§1)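 Tiles bearing barcoded ribozyme variants, transcribed in situ by E. coli RNA polymerase on sequenced MiSeq chips, were imaged over ~14 h at 37 °C using a hybridised Cy3 probe. Glucosamine-6-phosphate was supplied at 40 μM to 10 mM in HEPES/KCl/Mg(OAc)2 buffer. kobs came from one- or two-exponential decay fits to normalised per-tile medians, and weighted Michaelis–Menten fits then provided kcat and KM.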

**Q.** For AUAAAAGCGCAAGAACUACAUAAAUGUAGUUGACGAGGCGGAGGUAUAUCGAAUUUCCGGCGGAUGCCUCCAAA [C11A G21U A39C U46A U57C], which “self-cleavage kobs at 2500 uM GlcN6P” value is on record?
**A.** < 1e-05 s⁻¹

**Q.** With AUAAAAGCGCGAGAACUACAGAAAUGUAGUUGUCGAGGAGGAGGUGUAUCCAAAUUUCGGCGGAUGCCUCCAAA [C11G A33U U46G G51C U54A] as the variant, how does the “self-cleavage kobs at 2500 uM GlcN6P” value read?
**A.** < 1e-05 s⁻¹

**Q.** For AUAAAAGCGCAAGAACUACAGAAAUGUAGUUGACGAGGAGGAGGUUUAUCGGAUUUUCGGCGGAUGCCUUCAAA [C11A A52G C70U], which “self-cleavage kobs at 2500 uM GlcN6P” value is on record?
**A.** 8.24e-05 ± 3.2e-05 s⁻¹

**Q.** AUAAAAGCGCAAGAACUACAGAAAUGUAGUUGAGGAGGAGGAGGUUUAACGAAUUUUCGGCGGAUGCCUCCAAA [C11A C34G U49A] was tested. Which “self-cleavage kobs at 2500 uM GlcN6P” value did it give?
**A.** < 1e-05 s⁻¹

**Q.** With AUAAAAGCGCGAGAACUACAGAAAUGUAGUUGACAAGGAAGAGGUUUAUCGAAUUUUCGGCGGAUGCCUCCAAA [C11G G35A G40A] as the variant, how does the “self-cleavage kobs at 2500 uM GlcN6P” value read?
**A.** < 1e-05 s⁻¹

**Q.** Which “self-cleavage kobs at 2500 uM GlcN6P” value does the source give for AUAAAAGCGCAAGGACUACAGAAAUGUAGUUGACGAGGAUGAGGUUUAUCGAAUUUUCGGCGGAUGCCUCCAAA [C11A A14G G40U] here?
**A.** 5.01e-05 ± 1.9e-05 s⁻¹

**Q.** For AUAAAAGCGCAAGAACUACAGAAAUGUAGUUGAAGAGGAGGCGGUUUAUCGAAUUUUCGGCGGAUGCCUACAAA [C11A C34A A42C C70A], which “self-cleavage kobs at 2500 uM GlcN6P” value is on record?
**A.** < 1e-05 s⁻¹

**Q.** Which “self-cleavage kobs at 2500 uM GlcN6P” value does the source give for AUAAAAGCGCAAGAACUACAGAAAUGUAGUUGACGAGGAGGAGGUUUAUCCAAUUUUCGGCGUAUGCCUCCAAA [C11A G51C G63U] here?
**A.** < 1e-05 s⁻¹

**Q.** AUAAAAGCGCUAGAAUUACAGAAAUGUAGUUGACGAGGAGGAGGUUUAUCGAAUUUUCGGUGGAUGCCUCCAAA [C11U C16U C61U] was tested. Which “self-cleavage kobs at 2500 uM GlcN6P” value did it give?
**A.** < 1e-05 s⁻¹

**Q.** How did the “self-cleavage kobs at 2500 uM GlcN6P” value turn out when AUAAAAGCGCGCGAACUACAGAAAUGUAGUUGACGAGUAGGAGGUUUAUUGAAUUUUCGGCGGAUGCCUCCAAA [C11G A12C G38U C50U] was run?
**A.** < 1e-05 s⁻¹

**Q.** With AUAAAAGCGCUGGAACUACAGAAAUGUAGUUGACGAGGAGGAGGUUUAUCGAAUUCUCGGCGGAUGCCUCCAAA [C11U A12G U56C] as the variant, how does the “self-cleavage kobs at 2500 uM GlcN6P” value read?
**A.** 0.000115 ± 2.6e-05 s⁻¹

**Q.** With AUAAAAGCGCUAGAACUACAGAAAUGUAGUUGACGAGGAGGAGGUUUAUCGAAUUUUCGGCGGUUGCUUCUAAA [C11U A64U C68U C71U] as the variant, how does the “self-cleavage kobs at 2500 uM GlcN6P” value read?
**A.** < 1e-05 s⁻¹

**Q.** How did the “self-cleavage kobs at 2500 uM GlcN6P” value turn out when AUAAAAGCGCUAGAACUACAGAAAUGUAGUUGACGAGGUGGAGGUUUAACGAAUUUUCGGCGGAUGCCCCCAAA [C11U A39U U49A U69C] was run?
**A.** < 1e-05 s⁻¹

**Q.** How did the “self-cleavage kobs at 2500 uM GlcN6P” value turn out when AUAAAAGCGCAAGAACUACAGAAAUGUAGUUGACGAGGAGGAGGUUUAUCGAAUUUUCGGCGGAGGCCUGAAAA [C11A U65G C70G C71A] was run?
**A.** 0.000187 ± 6.3e-05 s⁻¹

**Q.** With AUAAAAGCGCAAGAACUACAGAAAUGUAGUUGACGAGCAUGAGGUUUAUCGAAUUUUCAGCGGAUGCCUCCAAA [C11A G38C G40U G59A] as the variant, how does the “self-cleavage kobs at 2500 uM GlcN6P” value read?
**A.** < 1e-05 s⁻¹

**Q.** AUAAAAGCGCUCGAACUACAGAAAUGUAGUUUACGAGGAGGAGGUUUAUCGAAUUUUCGGCGGAUGCCUCCAAA [C11U A12C G32U] was tested. Which “self-cleavage kobs at 2500 uM GlcN6P” value did it give?
**A.** < 1e-05 s⁻¹

**Q.** With AUAAAAGCGCGAGAACUACAGAAAUGUAGUUGACGAGGAGUAGGUUUCUCGAAUUUUCGGCGGAUGCCUGCAAA [C11G G41U A48C C70G] as the variant, how does the “self-cleavage kobs at 2500 uM GlcN6P” value read?
**A.** < 1e-05 s⁻¹

**Q.** Which “self-cleavage kobs at 2500 uM GlcN6P” value does the source give for AUAAAAGCGCUAGAACUACAGAAAUGUAGUUGACGAGGAGGAGGUUUCUCGAAUUUUCGGCUGAUGCCUCCAAA [C11U A48C G62U] here?
**A.** < 1e-05 s⁻¹

**Q.** With AUAAAAGCGCUAGAGCUACAGAAAUGUAGUUGACGAAGAGGAGGUUUAUCGAAUUUUCGACGGAUGCCUCCAAA [C11U A15G G37A G60A] as the variant, how does the “self-cleavage kobs at 2500 uM GlcN6P” value read?
**A.** < 1e-05 s⁻¹

**Q.** How did the “self-cleavage kobs at 2500 uM GlcN6P” value turn out when AUAAAAGCGCGAGAACUACAGAAAUGUAGUUGUCGAGGAGGAGGUUGAUCGAAUUUUCGGCGGAUGCCUCCAAA [C11G A33U U47G] was run?
**A.** < 1e-05 s⁻¹

**Q.** How did the “self-cleavage kobs at 2500 uM GlcN6P” value turn out when AUAAAAGCGCAAGAACUACAGAAAUGUAGUAGGCGAGGAGGAGGUUUAUCGAAUUUUCGGCGGAUGCCUCCAAA [C11A U31A A33G] was run?
**A.** < 1e-05 s⁻¹

**Q.** With AUAAAAGCGCGAGAACUACAGAAAUGUAUUUGACGAGGAGGAGGUUUUUCUAAUUUUCGGCGGAUGCCUCGAAA [C11G G29U A48U G51U C71G] as the variant, how does the “self-cleavage kobs at 2500 uM GlcN6P” value read?
**A.** 0.000485 ± 0.00016 s⁻¹

**Q.** For AUAAAAGCGCAAGAACUACAGAAAUGUAGUUGACGAGGAGGAGGUUUAUCGUAUUUUCGGCGGACGCCUCCAAA [C11A A52U U65C], which “self-cleavage kobs at 2500 uM GlcN6P” value is on record?
**A.** < 1e-05 s⁻¹

**Q.** Which “self-cleavage kobs at 2500 uM GlcN6P” value does the source give for AUAAAAGCGCGAGAACUACAGAAAUGUAGUUGACGAGGAGGAGGUUUAUCGAAUUUUCGCCGCAUGCCUCCAAA [C11G G60C G63C] here?
**A.** < 1e-05 s⁻¹

**Q.** For AUAAAAGCGCGAAAACUACAGAAAUGUAGUUGACGAGGAGGAGAUUUAUCGAAUUUUCGGCGGAUGCCUCCAAA [C11G G13A G44A], which “self-cleavage kobs at 2500 uM GlcN6P” value is on record?
**A.** < 1e-05 s⁻¹

**Q.** AUAAAAGCGCAAGAUCUACAGAAAUGUAGUUGACGAGGAGGAGCUUUAUCGAAUUUUCGGCGGAUGCCUCCAAA [C11A A15U G44C] was tested. Which “self-cleavage kobs at 2500 uM GlcN6P” value did it give?
**A.** < 1e-05 s⁻¹

**Q.** With AUAAAAGCGCAAGAACUACAGAAAUGUAGUUGAAGAGGAGAAGGUUUAUCGAAUUUUCGGCGGAUGCCUCCAAA [C11A C34A G41A] as the variant, how does the “self-cleavage kobs at 2500 uM GlcN6P” value read?
**A.** < 1e-05 s⁻¹

**Q.** How did the “self-cleavage kobs at 2500 uM GlcN6P” value turn out when AUAAAAGCGCAAGAACUACAGAAAUGUAUUUGACGAGGAGGAGGUUUAUCGAAUUUUAGGCGGAUGCCUCCAAA [C11A G29U C58A] was run?
**A.** < 1e-05 s⁻¹

**Q.** How did the “self-cleavage kobs at 2500 uM GlcN6P” value turn out when AUAAAAGCGCGAGAACUACAGAAAUGUAGUUGACGAGGAGGAGGUUUAUCGAAUUGUCUGCGGAUGCCUCCAAA [C11G U56G G59U] was run?
**A.** 4.72e-05 ± 2e-05 s⁻¹

**Q.** For AUAAAAGCGCAAGAACUACAGAAAUGUAGUUGACGAACAGGAGGUUUAUCGAAUUUUCGGCGGAUGCCUCCAAA [C11A G37A G38C], which “self-cleavage kobs at 2500 uM GlcN6P” value is on record?
**A.** < 1e-05 s⁻¹

**Q.** Which “self-cleavage kobs at 2500 uM GlcN6P” value does the source give for AUAAAAGCGCGAGACCUACAGAAAUGUAGUUGACGAGGAGGAGGCUUAUCGAAUUUUCGGCGGAUGCGUCCAAA [C11G A15C U45C C68G] here?
**A.** < 1e-05 s⁻¹

**Q.** How did the “self-cleavage kobs at 2500 uM GlcN6P” value turn out when AUAAAAGCGCGAGAACUACAGAAAUGUAGUUGACGAGGAGGAGGUUUAUCCAAUUUUCGGCGGCUGCCUCCAAA [C11G G51C A64C] was run?
**A.** < 1e-05 s⁻¹

**Q.** AUAAAAGCGCAAGAACUACAGAAAUGUAGUUGAAGAGGAGGAGGUUUAUCGAAUUUUUGGGAGAUGCCUCCAAA [C11A C34A C58U C61G G62A] was tested. Which “self-cleavage kobs at 2500 uM GlcN6P” value did it give?
**A.** < 1e-05 s⁻¹

**Q.** How did the “self-cleavage kobs at 2500 uM GlcN6P” value turn out when AUAAAAGCGCUAGAAAUACAGAAAUGUAGUUGACGAGGAGGAGGUUUAUCGAAUUGUCGGCGGAUGCCUCCAAA [C11U C16A U56G] was run?
**A.** 0.000124 ± 4.3e-05 s⁻¹

**Q.** AUAAAAGCGCGAGAACUACAGAAAUGUAGUUGACGAGGAGGAGGUUUAUCGAAUUUUCGGAGGAUGCAUCCAAA [C11G C61A C68A] was tested. Which “self-cleavage kobs at 2500 uM GlcN6P” value did it give?
**A.** 8.83e-05 ± 2.3e-05 s⁻¹

**Q.** With AUAAAAGCGCGAGAACUACAGAAAUGUAGUUGACGAGGAGGAGGUUUAUGGAAUUUUAGGCGGAUGCCUCCAAA [C11G C50G C58A] as the variant, how does the “self-cleavage kobs at 2500 uM GlcN6P” value read?
**A.** 0.00031 ± 0.00011 s⁻¹

Variants of: B1
Assay: self-cleavage kobs at 10000 uM GlcN6P; higher = faster cleavage; RNA array
Settings: with glucosamine-6-phosphate
Method in brief: as §1

**Q.** Which “self-cleavage kobs at 10000 uM GlcN6P” value does the source give for AUAAAAGCGCGAGAACUACAGAAAUGUAGUUGACGAGGAGGAGGUUUAUCGAAUUUUCGCCGCAUGCCUCCAAA [C11G G60C G63C] here?
**A.** < 1e-05 s⁻¹
